Tests used:
human FcγRI = molecular target: T1, human FcγRI (human, UniProt P12314 16-292, limits assumed); assay: surface plasmon resonance, human FcγR
T1 construct: also called CD64

[1] = molecular target: T2, mouse FcγRI on macrophages (mouse, UniProt P26151 25-404); assay: two-color flow cytometry on mouse peritoneal macrophages (FcγRIIb-/-), FITC-2C10 detection
T2 construct: whole, on cells; The receptor is assigned by using macrophages from knockout mice; Other receptors may be present on these cells; also called FcγRI on mouse macrophages (from FcγRIIb-/- mice)
T2 sequence (looked up): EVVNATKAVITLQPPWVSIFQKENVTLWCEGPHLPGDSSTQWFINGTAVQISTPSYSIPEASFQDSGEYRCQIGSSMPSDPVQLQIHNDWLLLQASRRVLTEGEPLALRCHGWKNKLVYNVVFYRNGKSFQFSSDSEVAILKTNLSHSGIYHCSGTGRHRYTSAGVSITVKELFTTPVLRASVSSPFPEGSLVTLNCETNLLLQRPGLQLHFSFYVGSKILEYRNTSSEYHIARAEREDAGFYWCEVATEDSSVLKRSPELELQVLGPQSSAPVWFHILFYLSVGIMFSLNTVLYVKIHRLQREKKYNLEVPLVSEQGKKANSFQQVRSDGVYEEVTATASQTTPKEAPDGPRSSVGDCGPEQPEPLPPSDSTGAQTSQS

T1 sequence (P12314 16-292 limits assumed): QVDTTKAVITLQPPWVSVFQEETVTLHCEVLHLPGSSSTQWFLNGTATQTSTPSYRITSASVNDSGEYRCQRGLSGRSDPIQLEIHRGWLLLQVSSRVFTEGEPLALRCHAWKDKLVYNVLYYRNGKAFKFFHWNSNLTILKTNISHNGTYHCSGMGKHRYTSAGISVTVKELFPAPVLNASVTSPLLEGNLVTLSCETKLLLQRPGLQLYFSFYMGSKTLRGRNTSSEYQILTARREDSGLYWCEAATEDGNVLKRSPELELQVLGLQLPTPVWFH

B1: Y175L CRP (recombinant mutant C-reactive protein in which tyrosine 175 is replaced by leucine) (ligand)
chain: QTDMSRKAFVFPKESDTSYVSLKAPLTKPLKAFTVCLHFYTELSSTRGYSIFSYATKRQDNEILIFWSKDIGYSFTVGGSEILFEVPEVTVAPVHICTSWESASGIVEFWVDGKPRVRKSLKKGYTVGAEASIILGQEQDSFGGNFEGSQSLVGDIGNVNMWDFVLSPDEINTILLGGPFSPNVLNWRALKYEVQGEVFTKPQLWP
notes: also called CRP mutant Y175L; recombinant mutant CRP (Y175L)
- binding result (human FcγRI): binds
- binding result [1]: binds
